Experiment [1] relates to epithelial Na^+-channel, α-ENaC, β-ENaC, and γ-ENaC (rENaC). Description: Dual-electrode voltage clip, amiloride-sensitive Na+-current in oocytes expressing ENaC. It counts as cell-based, Xenopus laevis. The conditions noted are these: for activation of the Na^+-channel rENaC by hsgk2 and hsgk3: kinase inhibitor; for activation of the Na^+-channel rENaC by hsgk2 and hsgk3 / amiloride-inhibitable current, Iamil, through the Na^+-channel, rENaC: FIG. 1; for Na^+-current (INa): oocytes injected with α-ENaC, β-ENaC, and γ-ENaC plus kinase, mean ± SEM, n=7; for amiloride-inhibitable current, Iamil, through the Na^+-channel, rENaC: coexpression with kinase. The method, then: (§1) Each of the oocytes involved was injected with 1 ng cRNA from α-ENaC, β-ENaC, and γ-ENaC, Kv1.3, or minK, both with and without simultaneous injection of the kinases hsgk1, hsgk2, and hsgk3. Dual-electrode voltage-clip and current-clip experiments could be undertaken 2 to 4 days following injection. Na^+-currents (in the case of ENaC) and K^+-currents (in the case of Kv1.3 and minK) were filtered at 10 Hz and recorded using a recorder. The experiments were normally conducted on the second day following cRNA-injection. The bath solution contained 96 mM NaCl, 2 mM KCl, 1.8 mM CaCl2, 1 mM MgCl2, and 5 mM HEPES at a pH of 7.5 and a holding potential of −80 mV. In all experiments, bath pH was set by titration with HCl or NaOH. Bath-liquid flow rate was set to 20 ml/min, which provided for a complete change of solution within 10 to 15 seconds. All data were output in the form of arithmetic means±SEM.
(§2) In order to investigate the effects of hsgk1, hsgk2, or hsgk3, the mRNA of the respective kinases, together with the mRNA of the epithelial Na^+-channel, α-ENaC, β-ENaC, and γ-ENaC, or the voltage-dependent K^+-channel, Kv1.3, or the minK-channel, were injected into Xenopus oocytes and the amiloride-sensitive Na^+-current, INa, and voltage-activated K^+-current, IK, subsequently determined.

A further experiment relates to hsgk2 and hsgk3. Put plainly: Kinase inhibitors on hsgk stimulation of channel activity in oocytes. It counts as cell-based, Xenopus laevis. As to conditions: protein-kinase inhibitor added; Table 1, FIGS. 1 and 2. Here is the method: as §1, §2
The subject of experiment [2] is human embryonic kidney cells (HEK-cells). Description: Survival of HEK-cells after extraction of fetal calf serum. In kind it is cell-based. The conditions noted are these: FCS extracted, FIG. 3. The method, then:
According to FIG. 3, extracting fetal calf serum (FCS) from human embryonic kidney cells (HEK-cells) (Lewis, et al (1984); Phillips, et al (1982)) reduces the total number of cells present due to cell mortality, as may be seen by comparing the black bars to the dotted bars, where FIG. 3 depicts the situations after 24 hours and 48 hours, respectively. This reduction is lessened by the insulin-like growth factor (IGF1), represented by the white bars. The effect of IGF1 is eliminated by the simultaneous inhibition of K^+-channels using margatoxin (MT), represented by the hatched bars. […] The activation of the Kv1.3-channel mediated by sgk2 and sgk3 thus has an antiapoptotic effect, and lack of an sgk2-effect and sgk3-effect would thus cause an increase in cell mortality, as occurs in the case of, for example, neurodegeneration. Conversely, activators of sgk2 and sgk3 may be employed for preventing apoptotic cell death in the case of neurodegeneration. Since Kv1.3 also plays a major role in regulating lymphocyte proliferation and lymphocyte function, inhibitors or activators of these kinases may be employed for affecting the immune system in the case of, e.g., autoimmune diseases or immune deficiency.

The subject of experiment [3] is voltage-dependent K^+-channel, Kv1.3. Put plainly: Dual-electrode voltage clip, voltage-activated K+-current in oocytes expressing Kv1.3. It counts as cell-based, Xenopus laevis. The conditions noted are these: oocytes injected with Kv1.3 plus kinase; mean ± SEM, n=7. The method, then:
as §1, §2

The next experiment deals with minK-channel. Description: Dual-electrode voltage clip, K+-current in oocytes expressing minK. It counts as cell-based, Xenopus laevis. As to conditions: oocytes injected with minK plus kinase; mean ± SEM, n=7. Here is the method:
as §1, §2

In the case of `COc1ccc2c(c[n+](C)c3c4cc5c(cc4ccc23)OCO5)c1OC` [chelerythrine, reference compound], the “activation of the Na^+-channel rENaC by hsgk2 and hsgk3” value in experiment [1] is “inhibit activation of the Na^+-channel”. The “stimulating effects of hsgk on ENaC-activity, Kv1.3-activity and minK-activity” value with hsgk2 and hsgk3 is “totally prevented”.
Taken in the same sequence, the figures for `CN[C@@H]1C[C@H]2O[C@@](C)([C@@H]1OC)n1c3ccccc3c3c4c(c5c6ccccc6n2c5c31)C(=O)NC4` [staurosporine, reference compound] were “inhibit activation of the Na^+-channel” and “totally prevented”.
Consider IGF1: insulin-like growth factor, for which the “reduction of total number of cells due to cell mortality” value in experiment [2] (after 24 hours and 48 hours) is reported as “lessened”.
In the case of “margatoxin (TIINVKCTSPKQCLPPCKAQFGQSAGAKCMNGKCKCYPH; UniProt P40755 1-39, looked up) [reference compound]”, in experiment [2] (IGF1 plus simultaneous inhibition of K^+-channels, 24 and 48 hours), the “effect of IGF1 on cell-number reduction” value is “eliminated”.

B1: hsgk1: human serum-and-glucocorticoid-dependent kinase 1, coexpressed in oocytes by mRNA injection (protein, UniProt O00141 1-431, looked up)
Serine/threonine-protein …: MTVKTEAAKGTLTYSRMRGMVAILIAFMKQRRMGLNDFIQKIANNSYACKHPEVQSILKISQPQEPELMNANPSPPPSPSQQINLGPSSNPHAKPSDFHFLKVIGKGSFGKVLLARHKAEEVFYAVKVLQKKAILKKKEEKHIMSERNVLLKNVKHPFLVGLHFSFQTADKLYFVLDYINGGELFYHLQRERCFLEPRARFYAAEIASALGYLHSLNIVYRDLKPENILLDSQGHIVLTDFGLCKENIEHNSTTSTFCGTPEYLAPEVLHKQPYDRTVDWWCLGAVLYEMLYGLPPFYSRNTAEMYDNILNKPLQLKPNITNSARHLLEGLLQKDRTKRLGAKDDFMEIKSHVFFSLINWDDLINKKITPPFNPNVSGPNDLRHFDPEFTEEPVPNSIGKSPDSVLVTASVKEAAEAFLGFSYAPPTDSFL
On to B1, for which, in experiment [1], the “Na^+-current (INa)” value was 5.9 ± 1.0 μA. Further, the “K^+-current (IK), Kv1.3” value in experiment [3] is 8.4 ± 1.8 μA. Also, the “K^+-current (IK), MinK” value in the experiment on minK-channel came to 1.16 ± 0.11 μA.

B2: hsgk2: human serum-and-glucocorticoid-dependent kinase 2, coexpressed in oocytes by mRNA injection (protein, UniProt Q9HBY8 1-367, looked up)
Serine/threonine-protein …: MNSSPAGTPSPQPSRANGNINLGPSANPNAQPTDFDFLKVIGKGNYGKVLLAKRKSDGAFYAVKVLQKKSILKKKEQSHIMAERSVLLKNVRHPFLVGLRYSFQTPEKLYFVLDYVNGGELFFHLQRERRFLEPRARFYAAEVASAIGYLHSLNIIYRDLKPENILLDCQGHVVLTDFGLCKEGVEPEDTTSTFCGTPEYLAPEVLRKEPYDRAVDWWCLGAVLYEMLHGLPPFYSQDVSQMYENILHQPLQIPGGRTVAACDLLQSLLHKDQRQRLGSKADFLEIKNHVFFSPINWDDLYHKRLTPPFNPNVTGPADLKHFDPEFTQEAVSKSIGCTPDTVASSSGASSAFLGFSYAPEDDDILDC
For the molecule B2, in experiment [1], the “amiloride-inhibitable current, Iamil, through the Na^+-channel, rENaC” value is listed as “increased significantly” and the “Na^+-current (INa)” value was found to be 9.4 ± 1.7 μA. The “K^+-current (IK), Kv1.3” value in experiment [3] turned out to be 6.5 ± 0.6 μA. Moreover, the “K^+-current (IK), MinK” value in the experiment on minK-channel is 0.97 ± 0.1 μA.

B3: hsgk3: human serum-and-glucocorticoid-dependent kinase 3, coexpressed in oocytes by mRNA injection (protein, UniProt Q96BR1 1-496, looked up)
Serine/threonine-protein …: MQRDHTMDYKESCPSVSIPSSDEHREKKKRFTVYKVLVSVGRSEWFVFRRYAEFDKLYNTLKKQFPAMALKIPAKRIFGDNFDPDFIKQRRAGLNEFIQNLVRYPELYNHPDVRAFLQMDSPKHQSDPSEDEDERSSQKLHSTSQNINLGPSGNPHAKPTDFDFLKVIGKGSFGKVLLAKRKLDGKFYAVKVLQKKIVLNRKEQKHIMAERNVLLKNVKHPFLVGLHYSFQTTEKLYFVLDFVNGGELFFHLQRERSFPEHRARFYAAEIASALGYLHSIKIVYRDLKPENILLDSVGHVVLTDFGLCKEGIAISDTTTTFCGTPEYLAPEVIRKQPYDNTVDWWCLGAVLYEMLYGLPPFYCRDVAEMYDNILHKPLSLRPGVSLTAWSILEELLEKDRQNRLGAKEDFLEIQNHPFFESLSWADLVQKKIPPPFNPNVAGPDDIRNFDTAFTEETVPYSVCVSSDYSIVNASVLEADDAFVGFSYAPPSEDLFL
With B3, in experiment [1], the “amiloride-inhibitable current, Iamil, through the Na^+-channel, rENaC” value was “increased significantly” and the “Na^+-current (INa)” value was 4.5 ± 0.8 μA. In experiment [3], the “K^+-current (IK), Kv1.3” value was found to be 8.2 ± 0.7 μA. In the experiment on minK-channel, the “K^+-current (IK), MinK” value is given as 1.1 ± 0.11 μA.

For the origin of these results see patent US20040038882A1, “Sgk2 and sgk3 used as diagnostic and therapeutic targets” (priority 2000, published 2004).
